Laboratory results published in patent publication US20080311034A1 (published 2008).
One block for each binder: values may come before it.

Key:
[1] = target: T1, recombinant human His-tagged FcγRIIIa (extracellular domain made at Centocor) (human, UniProt P08637 17-208); experiment: ELISA, His-tagged FcγRIIIa captured on HisGrab plate
T1 construct: extracellular domain; also called CD16a; recombinant, soluble, human FcγRIIIa
Experimental: (§1) FcγRIIIa (CD16a) ELISA—A human FcγRIIIa binding assay was done in ELISA format similar to the assay for FcγRI above. 50 μl of a 2 μg/ml solution of recombinant human His-tagged FcγRIIIa (extracellular domain made at Centocor) in ELISA buffer (PBS, 4 mg/ml BSA, 0.01% Tween-20) was added to each well of HisGrab 96 well plates (Pierce #15142) (Powers G., Notebook 10378, 19-23). The plate was incubated for 3 hours at room temp. The plates were blocked with 200 μl of Starting Block (Pierce #15142) for 30 min, and then washed 3× with 300 μl of wash buffer (PBS, 0.01% Tween-20) on a plate washer. Serial dilutions of the CNTO 860 test samples were made in Starting Block buffer and 50 μl per well of each titration were added in duplicate to the FcγRIIIa-coated plates. The plates were incubated for 1 hour. The plates were washed 3× with 300 μl of wash buffer on a plate washer. 50 μl of a 1:10,000 dilution of HRP-labeled goat F(ab′)2 anti-human IgG F(ab′)2 (Jackson Immunoresearch # 109-036-097) in Starting Block buffer was added to each well. The plates were incubated for 30 minutes. The plates were washed 3× with 300 μl of wash buffer on the plate washer. 50 μl per well TMB substrate (RDI #RDI-TMBSU-1L) was added to each well and developed for 3-5 minutes. The reaction was stopped by adding 100 μl 10.2 N sulfuric acid. The plates were read at OD450 on an Envision plate reader. Antibody concentration vs OD450 values were graphed for each CNTO 860 variant and the antibody concentration needed to achieve an OD450 reading of 0.14 established by interpolation within each data curve.

[2] = target: T2, FcγRIIIa on NK cells of human PBMC (human, UniProt P08637 17-254); experiment: cell-based or functional assay
T2 sequence (P08637 17-254): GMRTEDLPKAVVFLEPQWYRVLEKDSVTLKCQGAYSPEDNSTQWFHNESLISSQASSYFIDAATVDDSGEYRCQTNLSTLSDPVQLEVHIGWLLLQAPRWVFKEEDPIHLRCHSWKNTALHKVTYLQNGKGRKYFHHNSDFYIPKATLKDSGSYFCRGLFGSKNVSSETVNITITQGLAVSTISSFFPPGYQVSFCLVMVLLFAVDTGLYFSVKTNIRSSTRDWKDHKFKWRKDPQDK

[3] = target: T3, recombinant polyhistidine tagged mouse FcγRIV (R&D Systems) (mouse, UniProt A0A0B4J1G0 21-203); experiment: ELISA, His-tagged mouse receptor captured on copper-coated plate
T3 construct: Bought
T3 sequence: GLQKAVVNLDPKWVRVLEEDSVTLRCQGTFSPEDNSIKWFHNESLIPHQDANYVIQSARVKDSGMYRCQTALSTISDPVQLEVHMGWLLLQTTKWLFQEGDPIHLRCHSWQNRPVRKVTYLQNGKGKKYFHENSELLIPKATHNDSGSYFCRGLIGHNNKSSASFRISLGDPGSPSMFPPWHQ
Experimental: (§2) Commercially-available recombinant polyhistidine tagged mouse FcγRI, FcγRII, FcγRIII, and FcγRIV (R&D Systems) were diluted to 1 μg/ml in PBS and 100 μl/well was captured onto copper-coated plates (Pierce) overnight at 4° C. Plates were washed three times with wash buffer (0.15M NaCl, 0.02% Tween 20). Non-specific binding was blocked using 200 μl/well SuperBlock (Pierce) for 15 minutes at room temperature. Plates were washed three times as above. […] Plates were washed three times as above to remove unbound mAb. CNTO 860 variants that bound to plated receptors were detected using 100 μl/well HRP-labeled goat F(ab′)₂ anti-human IgG F(ab′)₂ (Jackson ImmunoResearch) diluted 1:5,000 in PBS incubated at room temperature for 1 hour. Plates were washed five times using wash buffer as above, and developed using 100 μl/well TMB Stable Stop substrate (Fitzgerald Industries) stopped with 0.5M HCl. Absorbance was detected at 450 nm.
(§3) All binding assays were in an ELISA format, with recombinant soluble receptor captured on coated EIA plates.

[4] = target: T4, recombinant polyhistidine tagged mouse FcγRII (R&D Systems) (mouse, UniProt P08101 40-217, limits assumed); experiment: as above
T4 construct: Bought; also called FcRII
T4 sequence (looked up): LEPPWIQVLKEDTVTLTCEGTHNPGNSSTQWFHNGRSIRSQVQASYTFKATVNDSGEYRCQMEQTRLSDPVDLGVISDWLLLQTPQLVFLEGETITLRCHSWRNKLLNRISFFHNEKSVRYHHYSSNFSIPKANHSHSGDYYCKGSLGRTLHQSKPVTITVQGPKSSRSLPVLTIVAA
Experimental: as §2, §3

[5] = target: T5, recombinant polyhistidine tagged mouse FcγRIII (R&D Systems) (mouse, UniProt P08508 31-215); experiment: as above
T5 construct: Bought
T5 sequence (looked up): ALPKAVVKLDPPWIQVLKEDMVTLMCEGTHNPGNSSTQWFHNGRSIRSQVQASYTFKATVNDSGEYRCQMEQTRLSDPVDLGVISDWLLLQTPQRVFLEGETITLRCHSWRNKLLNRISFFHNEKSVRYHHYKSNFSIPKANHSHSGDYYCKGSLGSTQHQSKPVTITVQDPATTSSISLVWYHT
Experimental: as §2, §3

[6] = target: T6, recombinant polyhistidine tagged mouse FcγRI (R&D Systems) (mouse, UniProt P26151 25-297); experiment: as above
T6 construct: Bought; also called murine FcγRI
T6 sequence (looked up): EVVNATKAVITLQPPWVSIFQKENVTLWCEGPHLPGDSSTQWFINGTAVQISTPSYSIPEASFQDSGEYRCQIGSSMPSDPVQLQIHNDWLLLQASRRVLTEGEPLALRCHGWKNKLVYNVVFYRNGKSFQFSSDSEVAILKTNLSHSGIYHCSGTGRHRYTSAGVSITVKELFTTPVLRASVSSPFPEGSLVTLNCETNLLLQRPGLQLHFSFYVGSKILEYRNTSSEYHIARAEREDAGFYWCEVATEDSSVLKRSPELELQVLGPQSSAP
Experimental: as §2, §3

[7] = target: T7, recombinant human His-tagged FcγRIIa (R&D Systems #1330-CD-050) (human, UniProt P12318 36-218, limits assumed); experiment: AlphaScreen
T7 construct: Bought; also called CD32a; recombinant, soluble, human FcγRIIa
T7 sequence (looked up): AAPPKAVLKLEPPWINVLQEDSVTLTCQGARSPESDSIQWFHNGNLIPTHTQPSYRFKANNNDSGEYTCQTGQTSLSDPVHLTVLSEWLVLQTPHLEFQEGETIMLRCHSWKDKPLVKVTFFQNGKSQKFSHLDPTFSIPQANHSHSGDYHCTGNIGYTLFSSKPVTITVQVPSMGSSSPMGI
Experimental: (§4) FcγRIIa (CD32a) AlphaScreen—Nickel acceptor beads (Perkin Elmer #6760619C) were diluted 1:50 in assay buffer (PBS, pH 7.4, 4 mg/ml BSA, 0.01% Tween-20), and 27.5 μl were added to each well of a Nunc V-bottom polypropylene plate (VWR # 62409-108) (Powers G., Notebook 9006, pp. 169-175, 182-185). A 2.0 μg/ml solution of recombinant human His-tagged FcγRIIa (R&D Systems #1330-CD-050) was prepared in assay buffer and 27.5 μl added to each well of a separate Nunc V bottom polypropylene plate. Titrations of test Abs were prepared in the Nunc V bottom polypropylene plate starting at 30 μg/ml. A 2 μg/ml solution of biotinylated goat F(ab′)₂ anti-human IgG F(ab′)₂ (Jackson Immunoresearch #109-066-097) was prepared in assay buffer and 27.5 μl added to each well of another Nunc V bottom polypropylene plate. A 1:50 dilution of streptavidin donor beads (PerkinElmer # 6760002) was prepared in assay buffer and 27.5 μl added to each well of another Nunc V bottom polypropylene plate. A volume of 5 μl of each reagent was added to the corresponding quadrants of a low-volume, non-binding white 384-well plate (Corning # 3673) in the following order: acceptor beads, FcγRIIa, test Ab, biotinylated anti-human IgG F(ab′)₂, and streptavidin donor beads. The plates were incubated for 30 minutes with shaking and the O.D.s determined using an Envision plate reader.
(§5) FcγRIIb (CD32b) AlphaScreen—The assay was performed as described above for FcγRIIa except that FcγRIIa was replaced with FcγRIIb (R&D Systems #1875-CD-050).

[8] = target: T2, FcγRIIIa on NK cells of human PBMC; experiment: cell-based or functional assay; remark: listed apart in the source
[9] = target: T8, recombinant human FcγRIIb (R&D Systems #1875-CD-050) (human, UniProt P31994 46-217, limits assumed); experiment: AlphaScreen
T8 construct: Bought; also called CD32b; recombinant, soluble, human FcγRIIb
T8 sequence (looked up): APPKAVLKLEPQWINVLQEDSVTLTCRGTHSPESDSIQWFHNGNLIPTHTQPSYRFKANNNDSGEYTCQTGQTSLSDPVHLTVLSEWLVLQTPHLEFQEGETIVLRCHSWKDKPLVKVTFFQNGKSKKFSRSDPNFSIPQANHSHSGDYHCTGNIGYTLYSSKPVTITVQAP
Experimental: as §4, §5

[10] = target: T9, recombinant human His-tagged FcγRI (extracellular domain, R&D Systems #1257-FC-050) (human, UniProt P12314 16-292); experiment: ELISA
T9 construct: extracellular domain; Bought; also called CD64; recombinant, soluble, human FcγRI
T9 sequence (P12314 16-292): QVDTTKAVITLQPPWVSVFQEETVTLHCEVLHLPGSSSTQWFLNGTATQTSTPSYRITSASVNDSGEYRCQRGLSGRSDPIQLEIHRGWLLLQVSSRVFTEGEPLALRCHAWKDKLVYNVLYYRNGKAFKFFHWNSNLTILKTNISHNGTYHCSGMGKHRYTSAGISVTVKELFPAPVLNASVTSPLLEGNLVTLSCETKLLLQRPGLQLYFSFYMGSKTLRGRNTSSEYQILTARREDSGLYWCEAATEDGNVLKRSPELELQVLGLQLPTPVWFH
Experimental: FcγRI (CD64) ELISA —50 μl of a 1 μg/ml solution of recombinant human His-tagged FcγRI (extracellular domain, R&D Systems #1257-FC-050) in ELISA buffer (PBS, pH 7.4, 4 mg/ml BSA, 0.01% Tween-20) was added to each well of HisGrab 96 well plates (Pierce #15142) (Powers G., Notebook 9006, pp. 166-168, 180-181). The plate was incubated with shaking for 3 hours. The plates were washed 3× with 300 μl of wash buffer (PBS, 0.01% Tween-20) on a plate washer. Serial dilutions of the CNTO860 antibody Fc-variant samples were made in ELISA buffer and 50 μl per well of each titration were added in duplicate to the FcγRI-coated plates. The plates were incubated with shaking for 1 hour. The plates were washed 3× with 300 μl of wash buffer on a plate washer. 50 μl of a 1:10,000 dilution of HRP-labeled goat F(ab′)₂ anti-human IgG F(ab′)₂ (Jackson Immunoresearch # 109-036-097) in ELISA buffer was added to each well. The plates were incubated with shaking for 30 minutes. The plates were washed 3× with 300 μl of wash buffer on the plate washer. 50 μl per well TMB substrate (RDI #RDI-TMBSU-1L) was added to each well and developed for 5 minutes. The reaction was stopped by adding 100 μl 0.2 N sulfuric acid. The plates were read at OD450 on an Envision plate reader.
as §1, with “minutes.” for “minutes. The plates were washed 3× with 300 μl of wash buffer on the plate washer. 50 μl per well TMB substrate (RDI #RDI-TMBSU-1L) was added to each well and developed for 3-5 minutes. The reaction was stopped by adding 100 μl 10.2 N sulfuric acid. The plates were read at OD450 on an Envision plate reader. Antibody concentration vs OD450 values were graphed for each CNTO 860 variant and the antibody concentration needed to achieve an OD450 reading of 0.14 established by interpolation within each data curve.”

T1 sequence (P08637 17-208): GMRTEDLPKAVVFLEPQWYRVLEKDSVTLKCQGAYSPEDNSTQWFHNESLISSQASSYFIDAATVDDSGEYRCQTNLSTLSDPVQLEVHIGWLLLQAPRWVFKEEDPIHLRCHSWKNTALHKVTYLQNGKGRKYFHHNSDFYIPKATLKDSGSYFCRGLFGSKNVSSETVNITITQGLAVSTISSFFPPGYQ

B2: CNTO 860 A330I/I332E (antibody, human IgG1, kappa)
heavy: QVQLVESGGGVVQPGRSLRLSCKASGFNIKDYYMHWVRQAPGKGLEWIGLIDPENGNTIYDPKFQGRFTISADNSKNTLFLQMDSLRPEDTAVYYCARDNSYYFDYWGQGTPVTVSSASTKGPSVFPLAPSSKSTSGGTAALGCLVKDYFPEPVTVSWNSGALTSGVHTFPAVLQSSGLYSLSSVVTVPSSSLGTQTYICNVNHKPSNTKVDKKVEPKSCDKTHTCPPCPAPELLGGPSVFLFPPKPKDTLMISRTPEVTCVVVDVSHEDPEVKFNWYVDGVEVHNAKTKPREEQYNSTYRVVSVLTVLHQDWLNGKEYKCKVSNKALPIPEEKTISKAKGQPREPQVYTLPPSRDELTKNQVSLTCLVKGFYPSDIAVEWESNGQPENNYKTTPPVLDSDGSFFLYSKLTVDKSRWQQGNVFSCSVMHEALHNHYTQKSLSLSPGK
light: DIQMTQSPSSLSASVGDRVTITCKASQDIRKYLNWYQQKPGKAPKLLIYYATSLADGVPSRFSGSGSGTDYTFTISSLQPEDIATYYCLQHGESPYTFGQGTKLEITRTVAAPSVFIFPPSDEQLKSGTASVVCLLNNFYPREAKVQWKVDNALQSGNSQESVTEQDSKDSTYSLSSTLTLSKADYEKHKVYACEVTHQGLSSPVTKSFNRGEC
modifications: N-linked glycan at Asn297 of the heavy chain (fucose content depends on host cell, CHO or YB2/0); not carried by the letters
notes: also called A330I/I332E double mutant; A330I/I332E variant; copies: 2 + 2
fold higher concentration than WT to give an OD signal of 200,000 [7]: ~20 fold
fold activity in the ADCC assays [8]: ~10 fold

B4: CNTO 860 A330I (antibody)
heavy: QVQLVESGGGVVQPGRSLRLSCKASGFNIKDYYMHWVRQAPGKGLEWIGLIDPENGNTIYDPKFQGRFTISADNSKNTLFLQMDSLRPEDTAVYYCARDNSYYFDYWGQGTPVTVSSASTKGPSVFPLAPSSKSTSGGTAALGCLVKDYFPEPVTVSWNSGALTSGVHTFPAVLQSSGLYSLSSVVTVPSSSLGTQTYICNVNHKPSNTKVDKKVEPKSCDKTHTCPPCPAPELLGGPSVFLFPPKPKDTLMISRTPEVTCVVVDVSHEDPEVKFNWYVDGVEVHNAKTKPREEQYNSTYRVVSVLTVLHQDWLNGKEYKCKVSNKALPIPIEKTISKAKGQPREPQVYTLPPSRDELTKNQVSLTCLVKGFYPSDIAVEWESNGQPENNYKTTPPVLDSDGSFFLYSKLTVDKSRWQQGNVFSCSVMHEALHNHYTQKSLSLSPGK
light: B2 light
modifications: N-linked glycan at Asn297 of the heavy chain (fucose content depends on host cell, CHO or YB2/0); not carried by the letters
notes: also called A330I variant; A330I single mutant; copies: 2 + 2
fold change in binding against WT (reduced) [9]: 500 fold

Further lines, results first:

concentration (ng/ml) required for an O.D. value of 0.14 [1]: 900 ng/mL
EC25 (ng/ml), ADCC of HCT116 cells by human PBMC [2]: 1 ng/mL
ECOD1 (concentration required for an O.D. value of 1.0) [3]: 8 ng/mL
ECOD1 (concentration required for an O.D. value of 1.0) [4]: 1700 ng/mL
ECOD1 (concentration required for an O.D. value of 1.0) [5]: 2000 ng/mL
ECOD1 (concentration required for an O.D. value of 1.0) [6]: 25800 ng/mL
B1: CHO-CNTO 860 I332E/V264I (antibody, human IgG1, kappa)
heavy: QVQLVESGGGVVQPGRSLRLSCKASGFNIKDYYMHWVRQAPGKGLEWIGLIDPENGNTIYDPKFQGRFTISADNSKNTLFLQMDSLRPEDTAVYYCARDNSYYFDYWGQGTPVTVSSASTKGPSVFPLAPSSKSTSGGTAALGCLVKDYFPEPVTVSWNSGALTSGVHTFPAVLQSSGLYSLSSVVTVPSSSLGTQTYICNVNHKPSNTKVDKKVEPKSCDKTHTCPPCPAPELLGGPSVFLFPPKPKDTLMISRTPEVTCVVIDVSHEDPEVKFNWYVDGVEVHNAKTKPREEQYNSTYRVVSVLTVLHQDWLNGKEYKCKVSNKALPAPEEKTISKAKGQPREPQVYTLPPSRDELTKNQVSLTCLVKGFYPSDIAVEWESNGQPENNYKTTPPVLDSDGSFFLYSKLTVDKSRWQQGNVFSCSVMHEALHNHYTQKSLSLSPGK
light: B2 light
modifications: Heavy chain N297 carries the CHO-type N-linked glycan (about 95% fucosylated); not carried by the letters.
notes: IgG1/kappa Fc variant; transiently expressed in CHO cells (p4187/p4146); EU numbering; also called V264I/I332E (CHO cell-derived); copies: 2 + 2

fold change in binding against WT (enhanced) [9]: ~6 fold
B3: CNTO 860 S239D/I332E (antibody, human IgG1, kappa)
heavy: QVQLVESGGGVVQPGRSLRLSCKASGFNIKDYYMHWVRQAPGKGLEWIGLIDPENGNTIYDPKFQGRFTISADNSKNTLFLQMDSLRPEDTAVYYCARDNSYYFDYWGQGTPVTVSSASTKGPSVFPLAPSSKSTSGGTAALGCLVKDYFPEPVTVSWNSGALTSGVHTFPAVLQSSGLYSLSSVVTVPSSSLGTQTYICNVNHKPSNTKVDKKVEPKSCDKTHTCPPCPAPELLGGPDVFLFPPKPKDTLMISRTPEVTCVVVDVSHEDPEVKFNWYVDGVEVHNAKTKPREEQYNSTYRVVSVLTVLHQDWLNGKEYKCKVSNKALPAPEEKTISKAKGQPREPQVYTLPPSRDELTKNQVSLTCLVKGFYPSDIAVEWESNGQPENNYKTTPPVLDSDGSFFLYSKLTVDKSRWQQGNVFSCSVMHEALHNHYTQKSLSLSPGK
light: B2 light
modifications: N-linked glycan at Asn297 of the heavy chain (fucose content depends on host cell, CHO or YB2/0); not carried by the letters
notes: also called S239D/I332E double mutant; copies: 2 + 2

fold change in binding against WT (enhanced) [10]: 2 fold
B5: CNTO 860 I332E (antibody)
heavy: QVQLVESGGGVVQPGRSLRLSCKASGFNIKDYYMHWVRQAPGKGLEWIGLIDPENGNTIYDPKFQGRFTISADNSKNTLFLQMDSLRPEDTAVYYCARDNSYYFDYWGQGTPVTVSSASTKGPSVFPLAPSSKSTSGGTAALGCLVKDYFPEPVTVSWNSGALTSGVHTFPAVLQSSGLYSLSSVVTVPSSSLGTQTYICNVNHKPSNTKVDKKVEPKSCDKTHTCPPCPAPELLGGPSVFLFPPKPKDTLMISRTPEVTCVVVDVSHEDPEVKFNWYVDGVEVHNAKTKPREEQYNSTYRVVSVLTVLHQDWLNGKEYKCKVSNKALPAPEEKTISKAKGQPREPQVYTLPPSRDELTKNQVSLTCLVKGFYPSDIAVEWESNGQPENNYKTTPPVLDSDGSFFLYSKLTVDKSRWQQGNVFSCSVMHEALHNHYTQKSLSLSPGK
light: B2 light
modifications: N-linked glycan at heavy chain Asn297 (host cell not specified in these sentences); not carried by the letters
notes: also called I332E variant; I332E single mutant; copies: 2 + 2
